In article PMC5703901, “Rational design of cholesterol oxidase for efficient bioresolution of cholestane skeleton substrates” (Scientific Reports, 2017):
Changes are numbered by the printed parent chain. Names and notes keep the numbering of the source.

B1: PsChO (Pimelobacter simplex; V115C) (protein)
chain: VLVIGTGYGGAVAALRLAQAGVQVEMIEMGMSWDTPGSDGKIFAKVTSPDKRAYWLRTKTKAPCSNFFGFPIDATIPKYTGILDAEEFAGITVYQGRGVGGGSLVNGGMAVTPKQSRFSSILPSVDAAEMYATYYPRANAGLGVGSIDPAWFETAECYKYARVGRKHAQRSGFAWTFVPDVYDWNYMKAEQAGTVTRSALDGQVMYGNDHGKKSLVQTYLAQALATGRVNVSTLHQVTAVAPRSGGGYTVSIDQLDTSGNVVGTKSVTAGKVFFAAGSVGTSKLLTKLKATGSLPALNNEIGKGWGDNGNVMCGRANHMWDPTGSLQSTIPCSGIDNWDAGGAFAEVAPLPTGIETYASLYLSITNTTRRAEFSWNAAANKVDLSWQTAWKQDSINMAKTIFDKINSKEGTIYRTDLFGAYKVWQDGLTYHPLGGAVLNKATDNYGRLHGYNGLYVIDGALIPGNTTVNPFVTITALAERNIDNILANDI
notes: wild-type gene in pET28a(+), E. coli BL21(DE3), His6-tagged, Ni-NTA purified; noncovalent FAD type; catalytic H431, E346, N469
B2: PsChO (Pimelobacter simplex; F121V) (protein)
chain: B1 chain with C64V, F70V
notes: as for B1
B3: PsChO (Pimelobacter simplex) (protein)
chain: B1 chain with C64V
notes: as for B1

Substrate: CC(C)CCC[C@@H](C)[C@H]1CC[C@H]2[C@@H]3CC=C4C[C@@H](O)CC[C@]4(C)[C@H]3CC[C@]12C
Assay: peroxidase-coupled 4-aminoantipyrine/phenol H2O2 assay, OD500
Format: biochemical, Pimelobacter simplex
Settings: 25 mM phosphate pH 7.5, isopropanol and Triton X-100, temperature not stated for kinetics
From the text: (§1) peroxidase-coupled 4-aminoantipyrine/phenol H2O2 assay, OD500 on PsChO

Q: Which results are given for B1?
A: Km: 178.31 ± 1.38 µM; kcat: 23 ± 0.29 s⁻¹; kcat/Km: 130000 ± 500 M⁻¹ s⁻¹

Q: For B2, which Km is on record?
A: 154.83 ± 3.31 µM

Q: And the kcat?
A: 15.5 ± 0.3 s⁻¹

Q: And the kcat/Km?
A: 100000 ± 400 M⁻¹ s⁻¹

Q: Which Km does the source give for B3 here?
A: 204.85 ± 3.14 µM

Q: And the kcat?
A: 12.3 ± 0.32 s⁻¹

Q: What about the kcat/Km of the same protein?
A: 60000 ± 300 M⁻¹ s⁻¹

Substrate: CC[C@H](/C=C/[C@@H](C)[C@H]1CC[C@H]2[C@@H]3CC=C4C[C@@H](O)CC[C@]4(C)[C@H]3CC[C@]12C)C(C)C
Assay: as above
Format: biochemical, Pimelobacter simplex
Settings: 25 mM phosphate pH 7.5, isopropanol and Triton X-100, temperature not stated for kinetics
From the text: as §1

Q: How did the Km turn out when B1 was run?
A: 528.84 ± 3.59 µM

Q: What about the kcat of the same protein?
A: 4.23 ± 0.19 s⁻¹

Q: And the kcat/Km?
A: 8000 ± 200 M⁻¹ s⁻¹

Q: What does the source list for B2?
A: Km: 384.12 ± 3.84 µM; kcat: 7.68 ± 0.27 s⁻¹; kcat/Km: 20000 ± 200 M⁻¹ s⁻¹

Q: What does the source list for B3?
A: Km: 789.61 ± 4.71 µM; kcat: 1.58 ± 0.07 s⁻¹; kcat/Km: 2000 ± 100 M⁻¹ s⁻¹

Substrate: C[C@]12CC[C@H](O)CC1=CC[C@@H]1[C@@H]2CC[C@]2(C)C(=O)CC[C@@H]12
Assay: as above
Format: biochemical, Pimelobacter simplex
Settings: 25 mM phosphate pH 7.5, isopropanol and Triton X-100, temperature not stated for kinetics
From the text: as §1

Q: How did the Km turn out when B1 was run?
A: 318.81 ± 3.25 µM

Q: And the kcat?
A: 9.56 ± 0.34 s⁻¹

Q: What about the kcat/Km of the same protein?
A: 30000 ± 500 M⁻¹ s⁻¹

Q: What does the source list for B2?
A: Km: 273.52 ± 2.13 µM; kcat: 13.7 ± 0.2 s⁻¹; kcat/Km: 50000 ± 600 M⁻¹ s⁻¹

Q: What does the source list for B3?
A: Km: 341.21 ± 3.79 µM; kcat: 6.82 ± 0.14 s⁻¹; kcat/Km: 20000 ± 400 M⁻¹ s⁻¹

Substrate: [H][C@@]12CC=C3C[C@@H](O)CC[C@]3(C)[C@@]1([H])CC[C@@]1(C)[C@@]2([H])CC[C@]1([H])C(C)=O
Assay: as above
Format: biochemical, Pimelobacter simplex
Settings: 25 mM phosphate pH 7.5, isopropanol and Triton X-100, temperature not stated for kinetics
From the text: as §1

Q: Which results are given for B1?
A: Km: 228.42 ± 3.24 µM; kcat: 13.7 ± 0.31 s⁻¹; kcat/Km: 60000 ± 600 M⁻¹ s⁻¹

Q: Which results are given for B2?
A: Km: 190.61 ± 3.30 µM; kcat: 15.2 ± 0.22 s⁻¹; kcat/Km: 80000 ± 400 M⁻¹ s⁻¹

Q: What does the source list for B3?
A: Km: 294.55 ± 2.97 µM; kcat: 11.8 ± 0.34 s⁻¹; kcat/Km: 40000 ± 500 M⁻¹ s⁻¹

Substrate: [H][C@@]12CC=C3C[C@@H](O)CC[C@]3(C)[C@@]1([H])CC[C@@]1(C)[C@@]2([H])CC[C@]1([H])[C@H](C)CC[C@@H](CC)C(C)C
Assay: as above
Format: biochemical, Pimelobacter simplex
Settings: 25 mM phosphate pH 7.5, isopropanol and Triton X-100, temperature not stated for kinetics
From the text: as §1

Q: Which results are given for B1?
A: Km: 220.76 ± 3.14 µM; kcat: 13.2 ± 0.36 s⁻¹; kcat/Km: 60000 ± 700 M⁻¹ s⁻¹

Q: Which Km does the source give for B2 here?
A: 178.42 ± 1.61 µM

Q: What about the kcat of the same protein?
A: 16.1 ± 0.33 s⁻¹

Q: And the kcat/Km?
A: 90000 ± 800 M⁻¹ s⁻¹

Q: Which Km does the source give for B3 here?
A: 328.61 ± 3.60 µM

Q: And the kcat?
A: 9.86 ± 0.35 s⁻¹

Q: And the kcat/Km?
A: 30000 ± 500 M⁻¹ s⁻¹
